Data on 2 substances can be found in paper PMC3741231.

Assay [1] deals with human wild type PCSK9-V5 (prosegment≡PCSK9 complex) in conditioned medium (human) (UniProt Q8NBP7).
For assay [2] the target is unchanged. The source holds these as a separate data set.
The target in assay [3] is PCSK9 D374Y-V5 (gain-of-function natural mutant) (human) (UniProt Q8NBP7).
The target in assay [4] is PCSK9 Δ33-58 D374Y-V5 (human) (UniProt Q8NBP7).
In assay [5] the target is PCSK9 Δ33-58-V5 (lacking the acidic N-terminal region of the prosegment) (human) (UniProt Q8NBP7).
Assay [6] deals with human wild type PCSK9-V5 (prosegment≡PCSK9 complex) in conditioned medium (human) (UniProt Q8NBP7). The source holds these as a separate data set.

“Fcpro (Fc of human IgG1, hinge of human IgG1 and PCSK9 prosegment aa 31-152) (from UniProt Q8NBP7 31-152) (Fc fusion)” came in with a reduction by Fcpro (3 µg/ml, pre-incubated with 1 µg/ml PCSK9, both in HEK293 conditioned media) of the LDLR degradation induced by extracellular PCSK9 in HepG2/shPCSK9 cells, 4 h at 37°C in assay [1] of 60%.
Take “Fcpro expressed in HepG2/shPCSK9 cells (from UniProt Q8NBP7 31-152) (Fc fusion)”: the reversal by co-expressed Fcpro (DNA ratio PCSK9:Fcpro 1:3; ratios up to 1:9 gave no more) of the ∼44% LDLR degradation induced by PCSK9; total LDLR by Western blot of cell lysates in assay [2] is 75%. In addition, in assay [3], the total LDLR level (normalised to β-actin) in HepG2/shPCSK9 cells co-expressing Fcpro and PCSK9 D374Y, against 0.1 with D374Y alone (relative LDLR level) was 0.44. The substance further had a total LDLR level (normalised to β-actin) in HepG2/shPCSK9 cells co-expressing Fcpro and PCSK9 Δ33-58 D374Y, against 0.08 with Δ33-58 D374Y alone (relative LDLR level) in assay [4] of 0.31. In assay [5], this substance displayed a fold increase of total LDLR on co-expression of Fcpro with PCSK9 Δ33-58 in HepG2/shPCSK9 cells of 1.4 fold. In assay [6], the fold increase of total LDLR on co-expression of Fcpro with wild type PCSK9 in HepG2/shPCSK9 cells turned out to be 1.4 fold.
